Test [1] has as its target GFP–STIM2K dimer (oxidized, disulphide-linked through Cys725) (human) (UniProt Q9P246). Kind of test: pull-down; competition: GFP–STIM2K dimer bound to Ca^2+/CaM beads, eluted with 75 μM purified CaM or CaM mutant in 1 mM CaCl2; percent of bound GFP–STIM2K eluted.
Test [2] concerns the target GFP–Zipper–STIM1K (GFP, tetramerization domain of the Gcn4 leucine zipper variant pLI, STIM1 K-rich domain) (yeast | human) (UniProt Q13586). Kind of test: SEC; Superdex 200 10/300 GL in HK buffer (25 mM HEPES/KOH pH 7.5, 150 mM KCl, 1 mM DTT), 0.5 ml/min; elution compared with marker proteins. (In general: Size exclusion chromatography separates by hydrodynamic size, large species first.)

Test [3] has as its target GFP–STIM2K dimer (oxidized, disulphide-linked through Cys725) (human) (UniProt Q9P246).
Test [4] has the same target. The source holds these as a separate data set.
For test [5] the target is unchanged. This is another data set of the same source.

One may read the stoichiometry N as a count of units in the complex or per binding partner.

Sequence of GFP–STIM2K dimer (oxidized, disulphide-linked through Cys725) (human) (Q9P246 720-746): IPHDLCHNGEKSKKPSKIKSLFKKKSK

Substance “CaM1–4m (human CaM1–4 mutant, all four EF-hand domains mutated) (from UniProt P0DP23 1-149) (natural protein)” returned a percent of GFP–STIM2K eluted from the Ca^2+/CaM beads in test [1] of 7%.

In turn, “GFP–Zipper–STIM1K (GFP, tetramerization domain of the Gcn4 leucine zipper variant pLI, STIM1 K-rich domain) (from UniProt Q13586-1 662-685)” gave a stoichiometry N in test [2] of 4.

Take “His(6)-tagged human CaM (calmodulin) (from UniProt P0DP23 1-149) (natural protein)”: the reduction of binding of 2 μM GFP–STIM2K dimer to PM-like liposomes with 2 mol% PI(4,5)P2 after pre-incubation with 5 μM CaM in 50, 100 or 200 μM CaCl2 (2.1-, 2.6- and 3.4-fold against CaCl2 alone) in test [3] turned out to be 71%. The same substance yielded a reduction of binding of 2 μM GFP–STIM2K dimer to PM-like liposomes with 2 mol% PI(4,5)P2 after pre-incubation with 5 μM CaM in 100 μM CaCl2, against 100 μM CaCl2 alone in test [4] of 61%. Also, the reduction of binding of 2 μM GFP–STIM2K dimer to PC liposomes with 5 mol% PI(4,5)P2 after pre-incubation with 5 μM CaM in 100 μM CaCl2 (5-fold against no CaCl2, 3.8-fold against 100 μM CaCl2) in test [5] came out at 74%. Besides, in test [1], the percent of GFP–STIM2K eluted from the Ca^2+/CaM beads amounted to 45%.

For the origin of these results see publication PMC3814058.
